Here are results for five molecules from publication PMC130038.

Like-named read-outs stand apart in the source and are kept apart here.

Common to all, as to assay: EMSA
(In general: Mobility shift assays separate free from complexed probe on a gel.)

The target of data set [1] is T1, *VLF-1 (HAHIS-VLF-1, very late expression factor 1) (Autographa californica multiple capsid …, UniProt Q06687 1-379).
T1 sequence: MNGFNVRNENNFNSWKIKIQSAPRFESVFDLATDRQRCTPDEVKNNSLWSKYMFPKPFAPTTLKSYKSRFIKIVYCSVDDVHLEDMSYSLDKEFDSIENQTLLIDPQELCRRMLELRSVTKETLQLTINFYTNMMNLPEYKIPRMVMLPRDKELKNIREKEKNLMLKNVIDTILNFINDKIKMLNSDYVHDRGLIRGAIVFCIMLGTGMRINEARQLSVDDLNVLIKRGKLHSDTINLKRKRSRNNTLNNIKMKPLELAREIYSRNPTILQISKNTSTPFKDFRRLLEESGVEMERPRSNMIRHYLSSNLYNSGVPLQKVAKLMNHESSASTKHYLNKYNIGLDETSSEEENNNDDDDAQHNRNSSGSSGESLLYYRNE

Data set [2] deals with T1, *VLF-1 (HAHIS-VLF-1, very late …). This is another data set of the same source.
Data set [3] has the same target. The source holds these as a separate data set.
For data set [4] the target is unchanged. This is another data set of the same source.

B1: substrate VII, hairpin hr DNA (v-hr1/v-hr3) (structured_DNA)
DNA 1: GGGGTTTGTTTTTCAAAACTAAACTCGCTTTACGAGTAGAATTCTACTTGTAACGCACAATCAAGGGATGATGTCAGGGG
DNA 2: CCCCTGACATCATCCCTTGATTGTGAGTTTAGTTTTGAAAAACAAACCCC
B1: in data set [1], the binding result is recorded as “binds”.

B2: substrate I, linear single-stranded DNA (4X12-2) (ssDNA)
DNA: TGGGTGAACCTGCAGGTGGGCAAAGATGTCCTAGCAATGTAATCGTCAAGCTTTATGCCGTT
On to B2, for which the binding result in data set [2] is “no binding”.

B3: substrate IV, three-way junction (4X12-2/4X12-1/4X12-3) (structured_DNA)
DNA 1: B2 DNA
DNA 2: GACGCTGCCGAATTCTACCAGTGCCTTGCTAGGACATCTTTGCCCACCTGCAGGTTCACCC
DNA 3: CAACGGCATAAAGCTTGACGATTACATTGCTAGGACATGCTGTCTAGAGGATCCGACTATCGA
B3: the binding result in data set [3] is listed as “binds”.

B4: substrate V, cruciform (4X12-2/4X12-1/4X12-3/4X12-4a) (structured_DNA)
DNA 1: B2 DNA
DNA 2: B3 DNA 2
DNA 3: B3 DNA 3
DNA 4: ATCGATAGTCGGATCCTCTAGACAGCATGTCCTAGCAAGGCACTGGTAGAATTCGGCAGCGT
Consider B4, for which the binding result in data set [4] is given as “binds”.

B5: substrate II, linear double-stranded DNA (4X12-2/4X12-5) (dsDNA)
DNA 1: B2 DNA
DNA 2: AACGGCATAAAGCTTGACGATTACATTGCTAGGACATCTTTGCCCACCTGCAGGTTCACCCA
Consider B5, for which the binding result in data set [2] was “no binding”.
